The target of the data set is T1, acetylated p53 peptide (p53-382/diAc), P04637.
T1 chain: RHKK

B1: SIRT7 (sirtuin 7) protein (protein)
chain: MAAGGLSRSERKAAERVRRLREEQQRERLRQVSRILRKAAAERSAEEGRLLAESADLVTELQGRSRRREGLKRRQEEVCDDPEELRGKVRELASAVRNAKYLVVYTGAGISTAASIPDYRGPNGVWTLLQKGRSVSAADLSEAEPTLTHMSITRLHEQKLVQHVVSQNCDGLHLRSGLPRTAISELHGNMYIEVCTSCVPNREYVRVFDVTERTALHRHQTGRTCHKCGTQLRDTIVHFGERGTLGQPLNWEAATEAASRADTILCLGSSLKVLKKYPRLWCMTKPPSRRPKLYIVNLQWTPKDDWAALKLHGKCDDVMRLLMAELGLEIPAYSRWQDPIFSLATPLRAGEEGSHSRKSLCRSREEAPPGDRGAPLSSAPILGGWFGRGCTKRTKRKKVT
Consider B1, for which the deacetylation activity result is “significantly increased”.

The values are drawn from patent publication US20150177248.
